# Measurements taken from US20220016205A1, “METHODS OF OVERCOMING RESISTANCE TO IMMUNE CHECKPOINT INHIBITORS” (Board of Regents, The University of Texas System, priority 2018, published 2022).
# Columns and labels:
# RAW 264.7 cells [1] = test: qPCR of p38α, IL-1α, IL-1β, TNF-α, RANTES in RAW 264.7 cells treated with BMP7 or BMP7 plus follistatin; assay type: cell-based, murine; details: BMP7 plus follistatin versus BMP7 only, 24 or 48 hours (FIG. 3H)
# Description: (§1) Quantitative polymerase chain reaction (qPCR). Total RNA was isolated from cells and tumors with Triazol (Life Technologies) according to the manufacturer's protocol. For studies of BMP7, p38α, IL-1α, IL-1β, TNF-α, RANTES, IL-2, and IFN-γ expression, mRNA was retrotranscribed with the iScript™ gDNA Clear cDNA Synthesis Kit (BioRad) and analyzed by qPCR using SYBR Green (Life Technologies) with specific primers according to the manufacturer's protocol. The comparative Ct method was used to calculate the relative abundance of mRNAs compared with ACTB (beta-actin) expression for cancer cells or CD45 expression for immune cells.
# (§2) Co-culture experiments and treatments. Viable cells were counted with a hemocytometer (0.4% Trypan blue solution) and diluted to 40,000 cells per well in 24-wells plates. Cells from 344SQP, 344SQR, 344SQ ctrl, or 344SQ-shBMP7 tumors were seeded at the top inserts (24-mm Transwell with 0.4-μm pore polycarbonate membrane insert, Sigma-Aldrich), and RAW 264.7 or CD4^+ T cells were seeded at the bottom of the transwell system. […] RNA was then isolated from RAW 264.7 or CD4^+ T cells and analyzed for p38α, IL-1α, IL-1β, TNF-α, RANTES, IL-2 and IFN-γ expression with qPCR.
# peritoneal macrophages [2] = test: qPCR of p38α, IL-1α, IL-1β, TNF-α, RANTES in peritoneal macrophages treated with BMP7 or BMP7 plus follistatin; assay type: cell-based, mouse; details: BMP7 plus follistatin compared with BMP7 only
# Description: as §1, §2
# RAW 264.7 cells [3] = test: qPCR in RAW 264.7 cells co-cultured with 344SQR cells (transwell) with follistatin or K02288; assay type: cell-based, murine; details: 344SQR co-culture plus follistatin versus 344SQR co-culture only, 24 or 48 hours (FIG. 3I)
# Description: as §1
# Co-culture experiments and treatments. Viable cells were counted with a hemocytometer (0.4% Trypan blue solution) and diluted to 40,000 cells per well in 24-wells plates. Cells from 344SQP, 344SQR, 344SQ ctrl, or 344SQ-shBMP7 tumors were seeded at the top inserts (24-mm Transwell with 0.4-μm pore polycarbonate membrane insert, Sigma-Aldrich), and RAW 264.7 or CD4^+ T cells were seeded at the bottom of the transwell system. […] RNA was then isolated from RAW 264.7 or CD4^+ T cells and analyzed for p38α, IL-1α, IL-1β, TNF-α, RANTES, IL-2 and IFN-γ expression with qPCR. […]
# peritoneal macrophages [4] = test: qPCR in peritoneal macrophages co-cultured with 344SQR cells (transwell) with follistatin or K02288; assay type: cell-based, mouse; details: 344SQR co-culture plus follistatin versus 344SQR co-culture only, 24 or 48 hours (FIG. 3J)
# CD4^+ T cells = test: qPCR of p38α, IFN-γ, IL-2 in activated CD4+ T cells treated with BMP7 or BMP7 plus follistatin; assay type: cell-based, mouse; details: BMP7 plus follistatin compared with BMP7 only, 24 hours (FIG. 4F)
# Description: as §1
# as §2, with “system. CD4^+ T cells were isolated from splenocytes by using Dynabeads Untouched Mouse CD4 Cells Kit (Thermo Fisher Scientific—Life Technologies, Catalog #11416D) and activated with LEAF purified anti-mouse CD3c antibody (5 μg/mL) and LEAF purified anti-mouse CD28 antibody (1 μg/mL) (Biolegend).” for “system.”
# Next, CD4^+ T cells were co-cultured with 344SQP or 344SQR cells, and 344SQR ctrl or 344SQR shBMP7 cells, and the expression of p38α, IFN-γ, and IL-2 analyzed. […] To confirm that these findings depended on BMP7 and not on some other secreted molecule, CD4^+ T cells were treated with BMP7 with or without follistatin and p38α, IFN-γ, and IL-2 expression evaluated. […]
molecule,measurement,setting,value
"follistatin: BMP7 antagonist protein, natural inhibitor of BMP7 (R&D Systems, Catalog #769-FS-025) (protein, UniProt P19883 30-344, looked up) Follistatin: GNCWLRQAKNGRCQVLYKTELSKEECCSTGRLSTSWTEEDVNDNTLFKWMIFNGGAPNCIPCKETCENVDCGPGKKCRMNKKNKPRCVCAPDCSNITWKGPVCGLDGKTYRNECALLKARCKEQPELEVQYQGRCKKTCRDVFCPGSSTCVVDQTNNAYCVTCNRICPEPASSEQYLCGNDGVTYSSACHLRKATCLLGRSIGLAYEGKCIKAKSCEDIQCTGGKKCLWDFKVGRGRCSLCDELCPDSKSDEPVCASDNATYASECAMKEAACSSGVLLEVKHSGSCNSISEDTEEEEEDEDQDYSFPISSILEW",expression of p38a and p38α-regulated cytokines and chemokines,RAW 264.7 cells [1],higher expression
same,"levels of p38α, IL-1α, TNF-α, IL-1β, and RANTES",peritoneal macrophages [2],higher levels
same,expression of p38a and p38α-regulated cytokines and chemokines,RAW 264.7 cells [3],higher expression
same,expression of p38a and p38α-regulated cytokines and chemokines,peritoneal macrophages [4],higher expression
same,"expression of p38α, IFN-γ, and IL-2",CD4^+ T cells,higher expression
